Consider five molecules from PMC9849446, “Heating-mediated purification of active FGF21 and structure-based design of its variant with enhanced potency” (Scientific Reports, 2023).

Changes are numbered by the printed parent chain. Names may count otherwise.

Assay [1] has as its target T1, Human β-Klotho (human, UniProt Q86Z14 1-996).
T1 sequence (looked up): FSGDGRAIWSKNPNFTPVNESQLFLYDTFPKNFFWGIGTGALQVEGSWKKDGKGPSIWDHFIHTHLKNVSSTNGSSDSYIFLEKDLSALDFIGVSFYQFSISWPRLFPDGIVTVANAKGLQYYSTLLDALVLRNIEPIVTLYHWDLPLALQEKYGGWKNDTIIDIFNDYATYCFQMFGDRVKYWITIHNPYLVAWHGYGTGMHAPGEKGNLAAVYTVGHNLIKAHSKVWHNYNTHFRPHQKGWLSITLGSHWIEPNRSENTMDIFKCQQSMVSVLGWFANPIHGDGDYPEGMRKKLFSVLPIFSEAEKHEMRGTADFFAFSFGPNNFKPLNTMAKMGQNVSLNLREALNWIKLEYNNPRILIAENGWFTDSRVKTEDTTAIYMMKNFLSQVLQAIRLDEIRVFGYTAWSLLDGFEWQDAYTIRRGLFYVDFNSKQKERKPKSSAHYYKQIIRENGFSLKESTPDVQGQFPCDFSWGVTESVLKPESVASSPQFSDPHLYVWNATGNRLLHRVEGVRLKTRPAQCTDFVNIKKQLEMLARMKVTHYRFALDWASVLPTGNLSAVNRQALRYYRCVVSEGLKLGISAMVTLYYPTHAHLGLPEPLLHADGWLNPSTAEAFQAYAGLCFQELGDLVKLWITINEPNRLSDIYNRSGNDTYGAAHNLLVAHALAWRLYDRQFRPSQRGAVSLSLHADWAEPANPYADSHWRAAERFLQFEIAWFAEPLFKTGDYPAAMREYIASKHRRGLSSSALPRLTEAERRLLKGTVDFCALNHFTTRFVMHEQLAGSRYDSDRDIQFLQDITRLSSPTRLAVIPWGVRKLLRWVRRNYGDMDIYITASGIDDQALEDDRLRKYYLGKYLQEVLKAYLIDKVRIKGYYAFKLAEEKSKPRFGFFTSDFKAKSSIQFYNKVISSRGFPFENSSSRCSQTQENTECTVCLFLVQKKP
In words: cell-based or functional assay.

In assay [2] the target is T1, Human β-Klotho. Kind of assay: SPR; Biacore 8K; FGF21s covalently immobilised on CM5 chip by amine coupling (about 700-900 RU); human β-Klotho injected as 2.5-fold series 250 to 1.024 nM at 30 μl/min; 25 °C; HBS-EP+ (10 mM HEPES pH 7.4, 150 mM NaCl, 3 mM EDTA, 0.05% polysorbate 20); global fit, 1:1 Langmuir model. As to conditions: both partners purified. On the technique in general: In SPR one partner is held on a chip, and binding of the other changes the refractive index at the surface.

B1: wild type human FGF21 purified through heat treatment (htFGF21) (ligand, UniProt Q9NSA1 33-209, looked up)
chain: DSSPLLQFGGQVRQRYLYTDDAQQTEAHLEIREDGTVGGAADQSPESLLQLKALKPGVIQILGVKTSRFLCQRPDGALYGSLHFDPEACSFRELLLEDGYNVYQSEAHGLPLHLPGNKSPHRDPAPRGPARFLPLPGLPPALPEPPGILAPQPPDVGSSDPLSMVGPSQGRSPSYAS
notes: human fibroblast growth factor 21 (FGF21), residues 33-209; The TEV site ENLYFQ/G stood between Trx and FGF21, so a Gly probably remains before residue 33 after cleavage (surmised); also called htWT; wild type htFGF21; not shown: Trx, N-terminal, cleaved
Turning to B1, the “EC50 of FGFR1c/β-Klotho activation, luciferase reporter in modified HEK293 cells, 6 h” value (“EC50 of FGFR1c/β-Klotho activation” below) in assay [1] stood at 2.74 ng/mL. In assay [2], binding was characterised by a dissociation constant (Kd) of 12.9 nM; the koff (in general, the rate constant with which the complex falls apart) came to 0.00155 s⁻¹; the kon (usually a measure of how fast the partners come together) was 121000 M⁻¹ s⁻¹.

B2: htFGF21 variant with S195G, P199G, S200G, Q201H, and A208T mutations (htM5) (ligand, human, UniProt Q9NSA1 33-209, looked up)
chain: B1 chain with S163G, P167G, S168G, Q169H, A176T
notes: human FGF21 with S195G, P199G, S200G, Q201H and A208T; A Gly from the TEV site probably remains at the N-terminus (surmised); also called M5 variant; not shown: Trx, N-terminal, cleaved
Take B2: the “EC50 of FGFR1c/β-Klotho activation” value in assay [1] was 0.52 ng/mL. For the same molecule, in assay [2], the Kd (in general, the constant that tells how readily two partners part at equilibrium) amounted to 4.32 nM; the koff stood at 0.000707 s⁻¹; the on-rate constant (kon) was 164000 M⁻¹ s⁻¹.

B3: wild type human FGF21 purified without heating (nFGF21) (ligand, UniProt Q9NSA1 33-209, looked up)
chain: B1 chain
notes: human fibroblast growth factor 21 (FGF21), residues 33-209; differs only in that the 100 °C step was left out of the purification; The TEV site ENLYFQ/G stood between Trx and FGF21, so a Gly probably remains before residue 33 after cleavage (surmised); also called fibroblast growth factor 21; wild type FGF21; source: E. coli Rosetta (DE3), purified without heating; not shown: Trx, N-terminal, …
In assay [2], B3 gave a Kd of 12.8 nM, a koff of 0.00159 s⁻¹ and a kon of 126000 M⁻¹ s⁻¹.

B4: htFGF21 variant with Q201H and A208T mutations (htM2) (ligand, human, UniProt Q9NSA1 33-209, looked up)
chain: B1 chain with Q169H, A176T
notes: human FGF21 with Q201H and A208T; A Gly from the TEV site probably remains at the N-terminus (surmised); not shown: Trx, N-terminal, cleaved
For B4, the “EC50 of FGFR1c/β-Klotho activation” value in assay [1] is 1.37 ng/mL. Moreover, in assay [2], the Kd was found to be 10.9 nM, the off-rate constant (koff) worked out at 0.0013 s⁻¹ and the on-rate constant (kon) stood at 120000 M⁻¹ s⁻¹.

B5: htFGF21 variant with S195G, P199G, and S200G mutations (htM3) (ligand, human, UniProt Q9NSA1 33-209, looked up)
chain: B1 chain with S163G, P167G, S168G
notes: human FGF21 with S195G, P199G and S200G; A Gly from the TEV site probably remains at the N-terminus (surmised); not shown: Trx, N-terminal, cleaved
Consider B5, for which the “EC50 of FGFR1c/β-Klotho activation” value in assay [1] amounted to 0.75 ng/mL. In assay [2], this molecule returned a Kd of 5.19 nM, an off-rate (koff) of 0.000785 s⁻¹ and a kon of 152000 M⁻¹ s⁻¹.
